The values that follow come from PMC12300839, “Noncovalently Immobilized Glucose Oxidase/Horseradish Peroxidase Cascade on Polyamide Supports for Eco-Friendly Polyaniline Synthesis” (Molecules, 2025).

Substrate in this series: OC[C@H]1OC(O)[C@H](O)[C@@H](O)[C@@H]1O
The experiment in a line: purified protein. Type of series: biochemical, Aspergillus niger. Particulars: apparent Km of the whole free GOx/HRP cascade, not of isolated GOx, authors call the kinetics governed by HRP, glucose 50-150 µM, dissolved O2, constant TMB, 0.1 M acetate pH 4.5, room temperature.

B1: glucose oxidase (GOx) (Aspergillus niger) (protein)
chain: LPHYIRSNGIEASLLTDPKDVSGRTVDYIIAGGGLTGLTTAARLTENPNISVLVIESGSYESDRGPIIEDLNAYGDIFGSSVDHAYETVELATNNQTALIRSGNGLGGSTLVNGGTWTRPHKAQVDSWETVFGNEGWNWDNVAAYSLQAERARAPNAKQIAAGHYFNASCHGVNGTVHAGPRDTGDDYSPIVKALMSAVEDRGVPTKKDFGCGDPHGVSMFPNTLHEDQVRSDAAREWLLPNYQRPNLQVLTGQYVGKVLLSQNGTTPRAVGVEFGTHKGNTHNVYAKHEVLLAAGSAVSPTILEYSGIGMKSILEPLGIDTVVDLPVGLNLQDQTTATVRSRITSAGAGQGQAAWFATFNETFGDYSEKAHELLNTKLEQWAEEAVARGGFHNTTALLIQYENYRDWIVNHNVAYSELFLDTAGVASFDVWDLLPFTRGYVHILDKDPYLHHFAYDPQYFLNELDLLGQAAATQLARNISNSGAMQTYFAGETIPGDNLAYDADLSAWTEYIPYHFRPNYHGVGTCSMMPKEMGGVVDNAARVYGVQGLRVIDGSIPPTQMSSHVMTVFYAMALKISDAILEDYASMQ
notes: commercial native enzyme, type VIII (Merck/Sigma Aldrich), free in solution, ~160 kDa, FAD-containing
As usually defined, the Km is the substrate concentration at which the rate is half of its maximum. As usually defined, the Vmax is the top rate of the reaction or transport when substrate is in excess. As for B1, the Km is reported as 275 µM and the maximum rate (Vmax) was determined as 696 µM/min/mg.
